Laboratory results taken from FireProtDB (doi:10.1021/bi801431x).
Values joined by “and” are separate entries in the source; they are usually repeats but may differ in a detail not shown here. Equal entries are not always repeated.

B1: Aspartate aminotransferase, P00509 (parent)
chain: MFENITAAPADPILGLADLFRADERPGKINLGIGVYKDETGKTPVLTSVKKAEQYLLENETTKNYLGIDGIPEFGRCTQELLFGKGSALINDKRARTAQTPGGTGALRVAADFLAKNTSVKRVWVSNPSWPNHKSVFNSAGLEVREYAYYDAENHTLDFDALINSLNEAQAGDVVLFHGCCHNPTGIDPTLEQWQTLAQLSVEKGWLPLFDFAYQGFARGLEEDAEGLRAFAAMHKELIVASSYSKNFGLYNERVGACTLVAADSETVDRAFSQMKAAIRANYSNPPAHGASVVATILSNDALRAIWEQELTDMRQRIQRMRQLFVNTLQEKGANRDFSFIIKQNGMFSFSGLTKEQVLRLREEFGVYAVASGRVNVAGMTPDNMAPLCEAIVAVL

Variants of: B1
Conditions: Escherichia coli (strain K12); pH 7.5; 25 °C; Urea; Fluorescence; Potassium phosphate 20 mM; reversible: Yes; structure 1AMQ; whole UniProt chain shown

Variant	ddG of mutation (higher = less stable)	denaturant midpoint (higher = more stable)
MFENITAAPADPILGLADLFRADERPGKINLGIGVYKDETGKTPVLTSVKKAEQYLLENETTENYLGIDGIPEFGRCTQELLFGKGSALINDKRARTAQTPGGTGALRVAADFLAKNTSVKRVWVSNPSWPNHKSVFNSAGLEVREYAYYDAENHTLDFDALINSLNEAQAGDVVLFHGCCHNPTGIDPTLEQWQTLAQLSVEKGWLPLFDFAYQGFARGLEEDAEGLRAFAAMHKELIVASSYSKNFGLYNKRVGACTLVAADSETVDRAFSQMKAAIRANYSNPPAHGASVVATILSNDALRAIWEQELTDMRQRIQRMRQLFVNTLQEKGANRDFSFIIKQNGMFSFSGLTKEQVLRLREEFGVYAVASGRVNVAGMTPDNMAPLCEAIVAVL [K63E E253K]	6.7 kcal/mol and 6.5 kcal/mol	–
MFENITAAPAAPILGLADLFRADERPGKINLGIGVYKDETGKTPVLTSVKKAEQYLLENETTKNYLGIDGIPEFGRCTQELLFGKGSALINDKRARTAQTPGGTGALRVAADFLAKNTSVKRVWVSNPSWPNHKSVFNSAGLEVREYAYYDAENHTLDFDALINSLNEAQAGDVVLFHGCCHNPTGIDPTLEQWQTLAQLSVEKGWLPLFDFAYQGFARGLEEDAEGLRAFAAMHKELIVASSYSKNFGLYNERVGACTLVAADSETVDRAFSQMKAAIRANYSNPPAHGASVVATILSNDALRAIWEQELTDMRQRIQRMRQLFVNTLQEKGANRDFSFIIKQNGMFSFSGLTKEQVLRLREEFGVYAVASGRVNVAGMTPDNMAPLCEAIVAVL [D11A]	5.9 kcal/mol and 5.1 kcal/mol	–
MFANITAAPADPILGLADLFRADERPGKINLGIGVYKDETGKTPVLTSVKKAEQYLLENETTKNYLGIDGIPEFGRCTQELLFGKGSALINDKRARTAQTPGGTGALRVAADFLAKNTSVKRVWVSNPSWPNHKSVFNSAGLEVREYAYYDAENHTLDFDALINSLNEAQAGDVVLFHGCCHNPTGIDPTLEQWQTLAQLSVEKGWLPLFDFAYQGFARGLEEDAEGLRAFAAMHKELIVASSYSKNFGLYNERVGACTLVAADSETVDRAFSQMKAAIRANYSNPPAHGASVVATILSNDALRAIWEQELTDMRQRIQRMRQLFVNTLQEKGANRDFSFIIKQNGMFSFSGLTKEQVLRLREEFGVYAVASGRVNVAGMTPDNMAPLCEAIVAVL [E3A]	3.8 kcal/mol and 3 kcal/mol	–
MFENITAAPADPILGLADLFRADERPGKINLGIGVYKDETGKTPVLTSVKKAEQYLLENETTKNYLGIDGIPEFGRCTQELLFGKGSALINDKRARTAQTPGGTGALRVAADFLAKNTSVKRVWVSNPSWPNHKSVFNSAGLEVREYAYYDAENHTLDFDALINSLNEAQAGDVVLFHGCCHNPTGIDPTLEQWQTLAQLSVEKGWLPLFDFAYQGFARGLEEDAEGLRAFAAMHKELIVASSYSKNFGLYNEKVGACTLVAADSETVDRAFSQMKAAIRANYSNPPAHGASVVATILSNDALRAIWEQELTDMRQRIQRMRQLFVNTLQEKGANRDFSFIIKQNGMFSFSGLTKEQVLRLREEFGVYAVASGRVNVAGMTPDNMAPLCEAIVAVL [R254K]	7.6 kcal/mol and 5 kcal/mol	–
MFENITAAPADPILGLADLFRADERPGKINLGIGVYKDETGKTPVLTSVKKAEQYLLENETTKNYLGIDGIPEFGRCTQELLFGKGSALINDKRARTAQTPGGTGALRVAADFLAKNTSVKRVWVSNPSWPNHKSVFNSAGLEVREYAYYDAENHTLDFDALINSLNEAQAGDVVLFHGCCHNPTGIDPTLEQWQTLAQLSVEKGWLPLFDFAYQGFARGLEEDAEGLRAFAAMHKELIVASSYSKNFGLYNEMVGACTLVAADSETVDRAFSQMKAAIRANYSNPPAHGASVVATILSNDALRAIWEQELTDMRQRIQRMRQLFVNTLQEKGANRDFSFIIKQNGMFSFSGLTKEQVLRLREEFGVYAVASGRVNVAGMTPDNMAPLCEAIVAVL [R254M]	3.8 kcal/mol and 3.4 kcal/mol	3.06 M and 3.12 M and 5.19 M
MFENATAAPADPILGLADLFRADERPGKINLGIGVYKDETGKTPVLTSVKKAEQYLLENETTKNYLGIDGIPEFGRCTQELLFGKGSALINDKRARTAQTPGGTGALRVAADFLAKNTSVKRVWVSNPSWPNHKSVFNSAGLEVREYAYYDAENHTLDFDALINSLNEAQAGDVVLFHGCCHNPTGIDPTLEQWQTLAQLSVEKGWLPLFDFAYQGFARGLEEDAEGLRAFAAMHKELIVASSYSKNFGLYNERVGACTLVAADSETVDRAFSQMKAAIRANYSNPPAHGASVVATILSNDALRAIWEQELTDMRQRIQRMRQLFVNTLQEKGANRDFSFIIKQNGMFSFSGLTKEQVLRLREEFGVYAVASGRVNVAGMTPDNMAPLCEAIVAVL [I5A]	4.9 kcal/mol and 5.1 kcal/mol	2.81 M and 2.74 M and 5.2 M
MFENITAAPADPILGLADLFRADERPGKINLGIGVYKDETGKTPVLTSVKKAEQYLLENETTKNYLGIDGIPEFGRCTQELLFGKGSALINDKRARTAQTPGGTGALRVAADFLAKNTSVKRVWVSNPSWPNHKSVFNSAGLEVREYAYYDAENHTLDFDALINSLNEAQAGDVVLFHGCCHNPTGIDPTLEQWQTLAQLSVEKGWLPLFDFAYQGFARGLEEDAEGLRAFAAMHKELIVASSYSKNFGLYNERVGACTLVAADSETVDRAFSQMKAAIRADYSNPPAHGASVVATILSNDALRAIWEQELTDMRQRIQRMRQLFVNTLQEKGANRDFSFIIKQNGMFSFSGLTKEQVLRLREEFGVYAVASGRVNVAGMTPDNMAPLCEAIVAVL [N282D]	-0.8 kcal/mol	4.15 M and 4.9 M and 5.13 M
MFENITAAPADPILGLADLFRADERPGKINLGIGVYKDETGKTPVLTSVKKAEQYLLENETTKNYLGIDGIPEFGRCTQELLFGKGSALINDKRARTAQTPGGTGALRVAADFLAKNTSVKRVWVSNPSWPNHKSVFNSAGLEVREYAYYDAENHTLDFDALINSLNEAQAGDVVLFHGCCHNPTGIDPTLEQWQTLAQLSVEKGWLPLFDFAYQGFARGLEEDAEGLRAFAAMHKELIVASSYSKNFGLYNERVGACTLVAADSETVDRAFSQMKAAIRARYSNPPAHGASVVATILSNDALRAIWEQELTDMRQRIQRMRQLFVNTLQEKGANRDFSFIIKQNGMFSFSGLTKEQVLRLREEFGVYAVASGRVNVAGMTPDNMAPLCEAIVAVL [N282R]	2.6 kcal/mol	3.3 M and 5.17 M
MFENIAAAPADPILGLADLFRADERPGKINLGIGVYKDETGKTPVLTSVKKAEQYLLENETTKNYLGIDGIPEFGRCTQELLFGKGSALINDKRARTAQTPGGTGALRVAADFLAKNTSVKRVWVSNPSWPNHKSVFNSAGLEVREYAYYDAENHTLDFDALINSLNEAQAGDVVLFHGCCHNPTGIDPTLEQWQTLAQLSVEKGWLPLFDFAYQGFARGLEEDAEGLRAFAAMHKELIVASSYSKNFGLYNERVGACTLVAADSETVDRAFSQMKAAIRANYSNPPAHGASVVATILSNDALRAIWEQELTDMRQRIQRMRQLFVNTLQEKGANRDFSFIIKQNGMFSFSGLTKEQVLRLREEFGVYAVASGRVNVAGMTPDNMAPLCEAIVAVL [T6A]	1.3 kcal/mol	3.62 M and 4.77 M
MFENITAAPADPILGLADLFRADERPGKINLGIGVYKDETGKTPVLTSVKKAEQYLLENETTENYLGIDGIPEFGRCTQELLFGKGSALINDKRARTAQTPGGTGALRVAADFLAKNTSVKRVWVSNPSWPNHKSVFNSAGLEVREYAYYDAENHTLDFDALINSLNEAQAGDVVLFHGCCHNPTGIDPTLEQWQTLAQLSVEKGWLPLFDFAYQGFARGLEEDAEGLRAFAAMHKELIVASSYSKNFGLYNERVGACTLVAADSETVDRAFSQMKAAIRANYSNPPAHGASVVATILSNDALRAIWEQELTDMRQRIQRMRQLFVNTLQEKGANRDFSFIIKQNGMFSFSGLTKEQVLRLREEFGVYAVASGRVNVAGMTPDNMAPLCEAIVAVL [K63E]	4.5 kcal/mol	2.93 M and 3.9 M and 5.01 M
MFENITAAPADPILGLADLFRADERPGKINLGIGVYKDETGKTPVLTSVKKAEQYLLENETTMNYLGIDGIPEFGRCTQELLFGKGSALINDKRARTAQTPGGTGALRVAADFLAKNTSVKRVWVSNPSWPNHKSVFNSAGLEVREYAYYDAENHTLDFDALINSLNEAQAGDVVLFHGCCHNPTGIDPTLEQWQTLAQLSVEKGWLPLFDFAYQGFARGLEEDAEGLRAFAAMHKELIVASSYSKNFGLYNERVGACTLVAADSETVDRAFSQMKAAIRANYSNPPAHGASVVATILSNDALRAIWEQELTDMRQRIQRMRQLFVNTLQEKGANRDFSFIIKQNGMFSFSGLTKEQVLRLREEFGVYAVASGRVNVAGMTPDNMAPLCEAIVAVL [K63M]	5.4 kcal/mol and 4.7 kcal/mol	2.71 M and 2.81 M and 4.29 M
MFENITAAPADPILGLADLFRADERPGKINLGIGVYKDETGKTPVLTSVKKAEQYLLENETTKNYLGIDGIPEFGRCTQELLFGKGSALINDKRARTAQTPGGTGALRVAADFLAKNTSVKRVWVSNPSWPNHKSVFNSAGLEVREYAYYDAENHTLDFDALINSLNEAQAGDVVLFHGCCHNPTGIDPTLEQWQTLAQLSVEKGWLPLFDFAYQGFARGLEEDAEGLRAFAAMHKELIVASSYSKNFGLYNKRVGACTLVAADSETVDRAFSQMKAAIRANYSNPPAHGASVVATILSNDALRAIWEQELTDMRQRIQRMRQLFVNTLQEKGANRDFSFIIKQNGMFSFSGLTKEQVLRLREEFGVYAVASGRVNVAGMTPDNMAPLCEAIVAVL [E253K]	7.6 kcal/mol and 7.1 kcal/mol	–
MFENITAAPADPILGLADLFRADERPGKINLGIGVYKDETGKTPVLTSVKKAEQYLLENETTKNYLGIDGIPEFGRCTQELLFGKGSALINDKRARTAQTPGGTGALRVAADFLAKNTSVKRVWVSNPSWPNHKSVFNSAGLEVREYAYYDAENHTLDFDALINSLNEAQAGDVVLFHGCCHNPTGIDPTLEQWQTLAQLSVEKGWLPLFDFAYQGFARGLEEDAEGLRAFAAMHKELIVASSYSKNFGLYNQRVGACTLVAADSETVDRAFSQMKAAIRANYSNPPAHGASVVATILSNDALRAIWEQELTDMRQRIQRMRQLFVNTLQEKGANRDFSFIIKQNGMFSFSGLTKEQVLRLREEFGVYAVASGRVNVAGMTPDNMAPLCEAIVAVL [E253Q]	6.3 kcal/mol and 5.4 kcal/mol	–
MAENITAAPADPILGLADLFRADERPGKINLGIGVYKDETGKTPVLTSVKKAEQYLLENETTKNYLGIDGIPEFGRCTQELLFGKGSALINDKRARTAQTPGGTGALRVAADFLAKNTSVKRVWVSNPSWPNHKSVFNSAGLEVREYAYYDAENHTLDFDALINSLNEAQAGDVVLFHGCCHNPTGIDPTLEQWQTLAQLSVEKGWLPLFDFAYQGFARGLEEDAEGLRAFAAMHKELIVASSYSKNFGLYNERVGACTLVAADSETVDRAFSQMKAAIRANYSNPPAHGASVVATILSNDALRAIWEQELTDMRQRIQRMRQLFVNTLQEKGANRDFSFIIKQNGMFSFSGLTKEQVLRLREEFGVYAVASGRVNVAGMTPDNMAPLCEAIVAVL [F2A]	7.3 kcal/mol and 7.4 kcal/mol	2.28 M and 4.26 M and 5.09 M
MFENITAAPADPILGLADLFRADERPGKINLGIGVYKDETGKTPVLTSVKKAEQYLLENETTMNYLGIDGIPEFGRCTQELLFGKGSALINDKRARTAQTPGGTGALRVAADFLAKNTSVKRVWVSNPSWPNHKSVFNSAGLEVREYAYYDAENHTLDFDALINSLNEAQAGDVVLFHGCCHNPTGIDPTLEQWQTLAQLSVEKGWLPLFDFAYQGFARGLEEDAEGLRAFAAMHKELIVASSYSKNFGLYNQRVGACTLVAADSETVDRAFSQMKAAIRANYSNPPAHGASVVATILSNDALRAIWEQELTDMRQRIQRMRQLFVNTLQEKGANRDFSFIIKQNGMFSFSGLTKEQVLRLREEFGVYAVASGRVNVAGMTPDNMAPLCEAIVAVL [K63M E253Q]	5.3 kcal/mol and 4.6 kcal/mol	–
MFENITAAPADPILGLADLFRADERPGKINLGIGVYKDETGKTPVLTSVKKAEQYLLENETTKNYLGIDGIPEFGRCTQELLFGKGSALINDKRARTAQTPGGTGALRVAADFLAKNTSVKRVWVSNPSWPNHKSVFNSAGLEVREYAYYDAENHTLDFDALINSLNEAQAGDVVLFHGCCHNPTGIDPTLEQWQTLAQLSVEKGWLPLFDFAYQGFARGLEEDAEGLRAFAAMHKELIVASSYSKNFGLYNERVGACTLVAADSETVDRAFSQMKAAIRANYSRPPAHGASVVATILSNDALRAIWEQELTDMRQRIQRMRQLFVNTLQEKGANRDFSFIIKQNGMFSFSGLTKEQVLRLREEFGVYAVASGRVNVAGMTPDNMAPLCEAIVAVL [N285R]	4.4 kcal/mol and 5.9 kcal/mol	2.91 M and 2.66 M and 4.24 M
